Reference: the supplement of paper PMC7877785
± gives the uncertainty stated by the source.

Assay: self-splicing fitness, log relative to wild type (ln ratio); higher = more splicing; Tetrahymena group I intron in knt gene, E. coli kanamycin selection, DiMSum; sequences stand for … in CUCUCU…GGAGGGAAAAGUUAUCAGGCAUGCACCUGGUAGCUAGUCUUUAAACCAAUAGAUUGCAUCGGUUUAAAAGGCAAGACCGUCAAAUUGCGGGAAAGGGGUCAACAGCCGUUCAGUACCAAGUCUCAGGGGAAACUUUGAGAUGGCCUUGCAAAGGGUAUGGUAAUAAGCUGACGGACAUGGUCCUAACCACGCAGCCAAGUCCUAAGUCAACAGAUCUUCUGUUGAUAUGGAUGCAGUUCACAGACUAAAUGUCGGUCGGGGAAGAUGUAUUCUUCUCAUAAGAUAUAGUCGGACCUCUCCUUAAUGGGAGCUAGCGGAUGAAGUGAUGCAACACUGGAGCCGCUGGGAACUAAUUUGUAUGCGAAAGUAUAUUGAUUAGUUUUGGAGUACUCGUGGUCG
In short: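 Six replicate transformations of E. coli BL21(DE3) with a pET-22b(+) library were grown overnight at 37°C or 30°C. The library randomised all eight P1ex-region intron nucleotides, the intron lying in the knt kanamycin-resistance gene, and plates were LB agar with or without 25 μg/mL kanamycin plus 100 μg/mL carbenicillin, 50 μM IPTG and 0.2% rhamnose. Pooled colonies were amplicon-sequenced on an Illumina HiSeq 2500, and fitness is the DiMSum error-weighted combination of wild-type-normalised replicate fold changes, kanamycin versus none.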

| Sequence | self-splicing fitness (ln) (37 °C) | self-splicing fitness (ln) (30 °C) |
| --- | --- | --- |
| CGAGAGCAAUAUUACGUGCC | -2.05 ± 0.38 | – |
| CGAGAGCAAUAUUACGUGGG | -1.42 ± 0.28 | -2.27 ± 0.35 |
| CGAGAGCAAUAUUACGUUGU | -1.57 ± 0.19 | – |
| CGAGAGCAAUAUUACGUUUA | -3.25 ± 0.47 | -3.35 ± 0.36 |
| CGAUAGCAAUAUUACGAUCA | 0.441 ± 0.087 | -0.106 ± 0.06 |
| CGAUAGCAAUAUUACGAUCC | 0.104 ± 0.19 | -0.714 ± 0.13 |
| CGAUAGCAAUAUUACGAUGU | -0.614 ± 0.16 | -0.22 ± 0.14 |
| CGAUAGCAAUAUUACGAUUC | -0.777 ± 0.17 | -3.87 ± 0.39 |
| CGAUAGCAAUAUUACGCGCU | -1.02 ± 0.12 | -0.899 ± 0.12 |
| CGAUAGCAAUAUUACGGAUC | -2.6 ± 0.23 | -3.1 ± 0.3 |
| CGAUAGCAAUAUUACGGGAA | -2.33 ± 0.25 | -2.74 ± 0.32 |
| CGAUAGCAAUAUUACGGGCC | -1.8 ± 0.4 | -1.62 ± 0.49 |
| CGAUAGCAAUAUUACGUAGC | -2.68 ± 0.34 | -3.25 ± 0.19 |
| CGAUAGCAAUAUUACGUGCU | -1.34 ± 0.17 | -3.92 ± 0.34 |
| CGAUAGCAAUAUUACGUGGU | -1.94 ± 0.12 | -3.97 ± 0.16 |
| CGAUAGCAAUAUUACGUGUC | -2.64 ± 0.16 | -3.67 ± 0.2 |
| CGCAAGCAAUAUUACGAACC | -0.722 ± 0.19 | -2.01 ± 0.19 |
| CGCAAGCAAUAUUACGACAG | 0.344 ± 0.13 | -0.409 ± 0.083 |
| CGCAAGCAAUAUUACGAGAA | -2.03 ± 0.42 | – |
| CGCAAGCAAUAUUACGAGAC | -1.81 ± 0.21 | -3.4 ± 0.22 |
| CGCAAGCAAUAUUACGAUGA | -0.853 ± 0.071 | -0.874 ± 0.064 |
| CGCAAGCAAUAUUACGCAAG | -2.2 ± 0.31 | -2.84 ± 0.31 |
| CGCAAGCAAUAUUACGCCCU | 0.327 ± 0.12 | -0.736 ± 0.085 |
| CGCAAGCAAUAUUACGCUCG | -2.95 ± 0.29 | -3.87 ± 0.32 |
| CGCAAGCAAUAUUACGGCCU | -0.135 ± 0.13 | -2.59 ± 0.14 |

| Sequence | self-splicing fitness (ln) (37 °C) | self-splicing fitness (ln) (30 °C) |
| --- | --- | --- |
| CGCAAGCAAUAUUACGGGAU | -2.95 ± 0.23 | -4.29 ± 0.26 |
| CGCAAGCAAUAUUACGGGGA | -2.69 ± 0.23 | -3.1 ± 0.2 |
| CGCAAGCAAUAUUACGGGUU | -2.7 ± 0.2 | -4.62 ± 0.3 |
| CGCAAGCAAUAUUACGGUAG | -0.388 ± 0.06 | -0.472 ± 0.053 |
| CGCAAGCAAUAUUACGGUUA | -0.121 ± 0.085 | -2.32 ± 0.14 |
| CGCAAGCAAUAUUACGUAAG | 0.113 ± 0.093 | -0.308 ± 0.067 |
| CGCAAGCAAUAUUACGUCAA | -2.93 ± 0.14 | -3.1 ± 0.12 |
| CGCAAGCAAUAUUACGUCGA | -1.67 ± 0.14 | -2.24 ± 0.16 |
| CGCAAGCAAUAUUACGUUCG | -0.23 ± 0.082 | -1.86 ± 0.069 |
| CGCCAGCAAUAUUACGAGGC | -3.07 ± 0.32 | -2.66 ± 0.2 |
| CGCCAGCAAUAUUACGAGGG | -1.83 ± 0.18 | -3.28 ± 0.17 |
| CGCCAGCAAUAUUACGAGUC | -1.56 ± 0.24 | -3.11 ± 0.28 |
| CGCCAGCAAUAUUACGAUCA | -0.817 ± 0.34 | -1.58 ± 0.32 |
| CGCCAGCAAUAUUACGCCCA | -0.853 ± 0.19 | -1.42 ± 0.18 |
| CGCCAGCAAUAUUACGCCUC | -0.661 ± 0.29 | -3.25 ± 0.32 |
| CGCCAGCAAUAUUACGCCUU | -2.29 ± 0.26 | -3.11 ± 0.27 |
| CGCCAGCAAUAUUACGCGUG | -0.717 ± 0.093 | -2.06 ± 0.1 |
| CGCCAGCAAUAUUACGCUCG | -0.347 ± 0.14 | -2.21 ± 0.13 |
| CGCCAGCAAUAUUACGGACC | -0.361 ± 0.18 | -1.3 ± 0.15 |
| CGCCAGCAAUAUUACGGGCG | -2.94 ± 0.4 | – |
| CGCCAGCAAUAUUACGGGGA | -3.06 ± 0.27 | -3.02 ± 0.22 |
| CGCCAGCAAUAUUACGGUGG | -2.56 ± 0.18 | -2.06 ± 0.09 |
| CGCCAGCAAUAUUACGUAAG | 0.217 ± 0.074 | -0.207 ± 0.063 |
| CGCCAGCAAUAUUACGUCCC | -2.37 ± 0.49 | – |
